± gives the standard deviation of the averaged measurements.
What follows are sequences tested on Saccharomyces cerevisiae (assay: protein stability index of tFT-peptide fusion (C-terminal peptide) (PSI (0-1 scale)); higher = more stable (slower turnover)). Conditions: genetic background: wild type; temperature: 30 C.
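Further: PSI is a weighted mean of sequencing reads over stability bins, variants kept only with over 10 reads, mCherry proximal and sfGFP distal, peptide attached via GGGS linker.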

Row | Sequence | protein stability index
1 | PPVPSLFPPPPH | 0.674 ± 0.038
2 | PPVRPRPDPACR | 0.727 ± 0.031
3 | PPVSPPLPPPPH | 0.704 ± 0.03
4 | PPVWSSLPPPPF | 0.721 ± 0.018
5 | PQLNRKAATPQN | 0.641 ± 0.069
6 | PQPLESTVDHRL | 0.7192 ± 0.0062
7 | PRAANRWASKAL | 0.6941 ± 0.0069
8 | PRETRPDEAQRG | 0.726 ± 0.069
9 | PREYGSYHNYHS | 0.592 ± 0.047
10 | PRFPPLPAHRVR | 0.633 ± 0.047
11 | PRFPQPSTLLPP | 0.698 ± 0.021
12 | PRHPRLPAPPAP | 0.666 ± 0.034
13 | PRHSPPPPLPAP | 0.699 ± 0.014
14 | PRHVISQCFSRT | 0.6641 ± 0.005
15 | PRIPPPIPPDTP | 0.695 ± 0.045
16 | PRKHSSRAINPI | 0.721 ± 0.06
17 | PRLCFPPPPAPA | 0.688 ± 0.083
18 | PRPPALPFPLLA | 0.5329 ± 0.0036
19 | PRPPHPPPASPP | 0.58 ± 0.031
20 | PRPPPPRPRSSP | 0.667 ± 0.066
21 | PRPPSPPPPSPA | 0.808 ± 0.072
22 | PRRLCLLPLLSP | 0.662 ± 0.022
23 | PRRPCDPLRAPH | 0.737 ± 0.15
24 | PRRPPPPRARFP | 0.723 ± 0.026
25 | PRSAMTRHSSCR | 0.65 ± 0.017
26 | PRSAPPPPNSLF | 0.656 ± 0.035

Row | Sequence | protein stability index
27 | PRSPLSIFPSSL | 0.692 ± 0.13
28 | PRSPSPPRSPSP | 0.66 ± 0.12
29 | PRSSPEPTCQDP | 0.647 ± 0.099
30 | PRSTATSPPAPP | 0.6678 ± 0.0019
31 | PRTDIGGAGLGE | 0.6961 ± 0.0019
32 | PRTLRHSGRLAE | 0.705 ± 0.016
33 | PRTSQVNRFFRV | 0.721 ± 0.13
34 | PRYCVQQNPQDR | 0.722 ± 0.044
35 | PSALPPFQPGPL | 0.747 ± 0.047
36 | PSAPFPFPALGA | 0.61 ± 0.028
37 | PSAPLVPNLLAA | 0.662 ± 0.016
38 | PSAPPSLPFLPY | 0.692 ± 0.032
39 | PSDYDCHRKTFS | 0.738 ± 0.01
40 | PSFLPLPLPSSF | 0.718 ± 0.028
41 | PSFPHLPDFFIP | 0.6779 ± 0.0019
42 | PSFPSSPSPVTL | 0.69 ± 0.035
43 | PSGDYVVLTTVS | 0.6901 ± 0.0038
44 | PSGFLFPLSPPA | 0.698 ± 0.01
45 | PSGLLPILRLFL | 0.681 ± 0.047
46 | PSGNGAPRVHRK | 0.65 ± 0.011
47 | PSHLPRARRPPR | 0.686 ± 0.011
48 | PSHLWWDCIRKG | 0.625 ± 0.049
49 | PSHPAPGPSTRQ | 0.673 ± 0.032
50 | PSHPPLLLPLLL | 0.714 ± 0.022
51 | PSHSRSRPPPYL | 0.742 ± 0.1
52 | PSKMPNSTLRAE | 0.682 ± 0.065

Row | Sequence | protein stability index
53 | PSKTQKQYKTVA | 0.644 ± 0.094
54 | PSLHRPPLLPCP | 0.674 ± 0.013
55 | PSLLLPPLPLYT | 0.662 ± 0.031
56 | PSLLPPATLLPI | 0.718 ± 0.072
57 | PSLLSHAPSPRR | 0.682 ± 0.016
58 | PSLPLPSPPPFP | 0.643 ± 0.1
59 | PSLPPHPPSPLP | 0.742 ± 0.053
60 | PSLPPPSPSTAP | 0.713 ± 0.03
61 | PSLPRLPLCPLP | 0.704 ± 0.018
62 | PSLSPLPPRTTS | 0.732 ± 0.048
63 | PSLSYSRPPHPS | 0.681 ± 0.027
64 | PSPGPPHPPPLF | 0.713 ± 0.063
65 | PSPGPPLPPPLF | 0.7625 ± 0.0075
66 | PSPLPGYFFTLS | 0.627 ± 0.12
67 | PSPLPPPAPHPL | 0.752 ± 0.26
68 | PSPLPSPPPPPP | 0.625 ± 0.0074
69 | PSPLPTALLTNR | 0.644 ± 0.14
70 | PSPLSPEHPLPI | 0.72334 ± 0.00035
71 | PSPPLLPPPLYT | 0.658 ± 0.014
72 | PSPPPFPPIPFC | 0.708 ± 0.048
73 | PSPPPPPPTTVL | 0.718 ± 0.021
74 | PSPPPSSPPPRS | 0.686 ± 0.051
75 | PSPPRPPLPART | 0.763 ± 0.028
76 | PSPPVPPLPPVF | 0.55 ± 0.032
77 | PSPPYPPPSLPH | 0.69 ± 0.044
78 | PSPPYSRPPLPP | 0.698 ± 0.049

Row | Sequence | protein stability index
79 | PSPRISLSVFPC | 0.646 ± 0.062
80 | PSPRSPVPLTPS | 0.708 ± 0.015
81 | PSPRSSPPCSAS | 0.693 ± 0.039
82 | PSPSPNALALLR | 0.71439 ± 0.00045
83 | PSPSPPPLRSPL | 0.623 ± 0.016
84 | PSQPLPPSRHRP | 0.616 ± 0.037
85 | PSRPPALPPPAT | 0.721 ± 0.014
86 | PSRRPAVLPPLI | 0.6719 ± 0.0015
87 | PSRSCSAPLHPN | 0.78 ± 0.056
88 | PSRTTPARPPLT | 0.662 ± 0.061
89 | PSSEGHMEDTAA | 0.684 ± 0.018
90 | PSSPPPPSATPP | 0.701 ± 0.091
91 | PSSTLRLSPSSL | 0.728 ± 0.023
92 | PSSVPSTPTPPP | 0.657 ± 0.076
93 | PSTAPHLSPPPP | 0.731 ± 0.022
94 | PSTRPMLRSQQK | 0.66 ± 0.013
95 | PSVPPLQPPHSV | 0.697 ± 0.031
96 | PSVVPSLSPLFL | 0.796 ± 0.062
97 | PSVYAASPPLPP | 0.68 ± 0.03
98 | PSYSFQYRLIQD | 0.712 ± 0.038
99 | PTDFTPREAIGI | 0.68 ± 0.087
100 | PTGYPGPRMMVW | 0.771 ± 0.3
101 | PTHALLGCTCAN | 0.681 ± 0.024

Source: the supplement of paper PMC10724198
